Target: Leishmania tarentolae propionyl-CoA carboxylase (LtPCC) β-subunit (Leishmania tarentolae (endogenous in L. tarentolae cells))
Test: cryo-EM structure; endogenous LtPCC complexes from streptavidin pull-down, in 20 mM Tris-HCl pH 7.5, 60 mM KCl, 5 mM MgCl2, 1 mM DTT, 5 mM OG; α6β6 map with D3 symmetry at 3.2 Å, α5β6 (8.6 Å) and α4β6 (10.3 Å) maps with C1 symmetry

Leishmania tarentolae propionyl-CoA carboxylase (LtPCC) β-subunit (natural protein)
stoichiometry N: 6

Reference: publication PMC10148081
